The values below come from US8097440B1, “Engineered microorganisms capable of producing target compounds under anaerobic conditions” (Gevo, Inc., priority 2008, dated 2012).

Data set [1] relates to Lactococcus lactis alcohol dehydrogenase Ll_AdhA, SEQ ID NO: 67. The note with it: NADH as cofactor; cited from earlier work.
Substrate in data set [2]: NC(=O)C1=CN([C@@H]2O[C@H](COP(=O)(O)OP(=O)(O)OC[C@H]3O[C@@H](n4cnc5c(N)ncnc54)[C@H](O)[C@@H]3O)[C@@H](O)[C@H]2O)C=CC1
The data set can be described thus: KARI cuvette assay, purified Ec_IlvC^B8-his6. In kind it is biochemical, E. coli. The method, then: (§1) KARI cuvette assay: KARI activity was assayed kinetically by monitoring the decrease in NAD(P)H concentration by measuring the absorbance at 340 nm. A reaction buffer was prepared containing 250 mM potassium phosphate pH 7, 1 mM DTT and 10 mM MgCl2. Cell pellets were resuspended (0.25 g wet weight/mL buffer) in 250 mM potassium phosphate (KPi) buffer containing 1 mM DTT and 10 mM MgCl2. The resuspended cells were lysed by sonication for 1 min with a 50% duty cycle and pelleted at 11000×g and 4° C. for 15 min. A reaction mixture consisting of 910 μl reaction buffer, 50 μl acetolactate, and 20 μl lysate was prepared in a cuvette. The reaction was initiated by addition of 20 μL of 10 mM NAD(P)H. A substrate free control was conducted using reaction buffer without the addition of acetolactate.
(§2) Purification of KARI: Cell pellets used for purification were resuspended in purification buffer A (20 mM Tris, 20 mM imidazol, 100 mM NaCl, 10 mM MgCl2, pH 7.4). KARI was purified by IMAC (Immobilized metal affinity chromatography) over a 1 ml Histrap High Performance (histrap HP) column pre-charged with Nickel (GE Healthcare) using an Akta FPLC system (GE Healthcare). The column was equilibrated with four column volumes (cv) of buffer A. After injecting the crude extract, the column was washed with buffer A for 2 cv, followed by a wash step with a mixture of 10% elution buffer B (20 mM Tris, 300 mM imidazol, 100 mM NaCl, 10 mM MgCl2, pH 7.4) for 5 cv. KARI variants were eluted at 40% buffer B and stored at 4° C.
(§3) As a next step, the gene encoding variant Ec_llvC^Q110V-his6 (SEQ ID NO: 23) was used as template to generate individual combinations of the mutation Q110V with other mutations: R68L, A71T, A71S, R76G, R76S, R76T, S78D, and R76D. After screening the variants as described above, the most promising ones were expressed, purified, and characterized. Table 29 lists the KM values in μM on NADPH and NADH for Ec_llvC^his6, Ec_llvC^Q110V-his6, and variants of Ec_llvC^Q110V-his6. […] The A71S mutation was introduced into Ec_llvC^B8-his6 resulting in a variant Ec_llvC^B8A71S-his6, which yielded 44% catalytic efficiency on NADH compared to the catalytic efficiency of wild-type KARI on NADPH (FIG. 19 and Table 30).

Substrate in data set [3]: NC(=O)C1=CN([C@@H]2O[C@H](COP(=O)(O)OP(=O)(O)OC[C@H]3O[C@@H](n4cnc5c(N)ncnc54)[C@H](OP(=O)(O)O)[C@@H]3O)[C@@H](O)[C@H]2O)C=CC1
The data set can be described thus: KARI cuvette assay, purified Ec_IlvC^B8-his6. In kind it is biochemical, E. coli. To be noted: other: purified; acetolactate as substrate. The method, then:
as §1, §2, §3

Substrate in data set [4]: NC(=O)C1=CN([C@@H]2O[C@H](COP(=O)(O)OP(=O)(O)OC[C@H]3O[C@@H](n4cnc5c(N)ncnc54)[C@H](O)[C@@H]3O)[C@@H](O)[C@H]2O)C=CC1
The data set can be described thus: KARI cuvette assay, purified Ec_IlvC^his6 (parent / wild type). It is filed as biochemical, E. coli. The method, then:
as §1, §2
(§4) The three best variants Ec_llvC^S78D-his6, Ec_llvC^Q110A-his6, and Ec_llvC^Q110V-his6 were characterized according to their specific activities [U/mg], kcat values [s^−1], catalytic efficiencies [M^−1*s^−1] (FIG. 18), and KM values (Table 27).
(§5) Only 20% of the enzymes of the recombination library were active on NADH. After screening 1,000 clones using the NADH depletion assay at 340 nm, 26 KARI variants were selected for a rescreen by the high-throughput assay described in Example 14 and eight thereof were expressed in 25 ml LBamp medium in shake flasks according to the protocol for cell growth and protein expression in shake flasks as described in Example 14, purified according to the protocol for purification of KARI enzymes as described in Example 14, and NAD(P)H depletion at 340 nm was measured again. […] The KM values of variants Ec_llvC^2H10-his6 and Ec_llvC^6E6-his6 were measured and the catalytic efficiencies were calculated.

Substrate in data set [5]: NC(=O)C1=CN([C@@H]2O[C@H](COP(=O)(O)OP(=O)(O)OC[C@H]3O[C@@H](n4cnc5c(N)ncnc54)[C@H](OP(=O)(O)O)[C@@H]3O)[C@@H](O)[C@H]2O)C=CC1
Described as above. It is filed as biochemical, E. coli. The note with it: other: purified; acetolactate as substrate. The method, then: as §1, §2, §4, §5

Substrate in data set [6]: NC(=O)C1=CN([C@@H]2O[C@H](COP(=O)(O)OP(=O)(O)OC[C@H]3O[C@@H](n4cnc5c(N)ncnc54)[C@H](O)[C@@H]3O)[C@@H](O)[C@H]2O)C=CC1
Description: KARI cuvette assay, purified Ec_IlvC^B8A71S-his6. In kind it is biochemical, E. coli. The method, then:
as §1, §2, §3

Substrate in data set [7]: NC(=O)C1=CN([C@@H]2O[C@H](COP(=O)(O)OP(=O)(O)OC[C@H]3O[C@@H](n4cnc5c(N)ncnc54)[C@H](OP(=O)(O)O)[C@@H]3O)[C@@H](O)[C@H]2O)C=CC1
The data set can be described thus: KARI cuvette assay, purified Ec_IlvC^B8A71S-his6. In kind it is biochemical, E. coli. To be noted: other: purified; acetolactate as substrate. How it is done: as §1, §2, §3

Substrate in data set [8]: NC(=O)C1=CN([C@@H]2O[C@H](COP(=O)(O)OP(=O)(O)OC[C@H]3O[C@@H](n4cnc5c(N)ncnc54)[C@H](O)[C@@H]3O)[C@@H](O)[C@H]2O)C=CC1
Description: KARI assay, purified Ec_IlvC^6E6-his6. It is filed as biochemical, E. coli. To be noted: 30.0 °C. How it is done: as §1, §2, §5
(§6) Improved variants were expressed and purified from GEVO1186. 20 mL SC-URA medium overnight cultures were grown at 30° C. and 250 rpm in 250 mL flasks and were then used to inoculate 96 well deep well plates on the next morning. 50 μL of the overnight cultures were transferred into 600 μL SC-URA medium per well. The plates were then grown at 30° C. and 250 rpm in a humidified plate shaker for 8 h. In order to the harvest, the cultures were transferred into 50 mL Falcon tubes and then spun down at 4° C. and 5,000 rpm for 10 min. The pellets were frozen until they were processed and purified as described in Example 14 above.

Substrate in data set [9]: NC(=O)C1=CN([C@@H]2O[C@H](COP(=O)(O)OP(=O)(O)OC[C@H]3O[C@@H](n4cnc5c(N)ncnc54)[C@H](OP(=O)(O)O)[C@@H]3O)[C@@H](O)[C@H]2O)C=CC1
The data set can be described thus: KARI assay, purified Ec_IlvC^6E6-his6. It is filed as biochemical, E. coli. The note with it: other: Example 15, expressed in E. coli BL21(DE3), purified; 30.0 °C. The method, then: as §1, §2, §5, §6

Substrate in data set [10]: NC(=O)C1=CN([C@@H]2O[C@H](COP(=O)(O)OP(=O)(O)OC[C@H]3O[C@@H](n4cnc5c(N)ncnc54)[C@H](O)[C@@H]3O)[C@@H](O)[C@H]2O)C=CC1
Description: KARI assay, purified Ec_IlvC^2H10-his6. In kind it is biochemical, E. coli. To be noted: other: purified; acetolactate as substrate. The method, then:
as §1, §2, §5

Substrate in data set [11]: NC(=O)C1=CN([C@@H]2O[C@H](COP(=O)(O)OP(=O)(O)OC[C@H]3O[C@@H](n4cnc5c(N)ncnc54)[C@H](OP(=O)(O)O)[C@@H]3O)[C@@H](O)[C@H]2O)C=CC1
The data set can be described thus: KARI assay, purified Ec_IlvC^2H10-his6. In kind it is biochemical, E. coli. To be noted: other: purified; acetolactate as substrate. The method, then:
as §1, §2, §5

The mark [12] stands for this setting: other: purified, acetolactate as substrate.
Setting [13] is: other: Example 15, expressed in E. coli BL21(DE3), purified.
[14] abbreviates: other: Example 16, expressed in yeast GEVO1186, purified.

Positions count from the first letter of the chain named. Numbers in names are those of the source.

Turning to `CC=O` [Acetaldehyde], in data set [1], the Km (in general, the substrate concentration at which the rate is half of its maximum) was 500 µM and the kcat – broadly, the maximal rate divided by the concentration of active sites – was 10 s⁻¹.
For `CC(C)C=O` [isobutyraldehyde], in data set [1], the Km was 9100 µM and the kcat is 6.6 s⁻¹.

B1: E. coli KARI Ec_IlvC variant Ec_IlvC^B8-his6 (Q110V, S78D), SEQ ID NO: 27 (Escherichia coli K-12; Q110V/S78D) (protein)
chain: MANYFNTLNLRQQLAQLGKCRFMGRDEFADGASYLQGKKVVIVGCGAQGLNQGLNMRDSGLDISYALRKEAIAEKRADWRKATENGFKVGTYEELIPQADLVINLTPDKVHSDVVRTVQPLMKDGAALGYSHGFNIVEVGEQIRKDITVVMVAPKCPGTEVREEYKRGFGVPTLIAVHPENDPKGEGMAIAKAWAAATGGHRAGVLESSFVAEVKSDLMGEQTILCGMLQAGSLLCFDKLVEEGTDPAYAEKLIQFGWETITEALKQGGITLMMDRLSNPAKLRAYALSEQLKEIMAPLFQKHMDDIISGEFSSGMMADWANDDKKLLTWREETGKTAFETAPQYEGKIGEQEYFDKGVLMIAMVKAGVELAFETMVDSGIIEESAYYESLHELPLIANTIARKRLYEMNVVISDTAEYGNYLFSYACVPLLKPFMAELQPGDLGKAIPEGAVDNGQLRDVNEAIRSHAIEQVGKKLRGYMTDMKRIAVAGLEHHHHHH
Take B1: in data set [2] (setting [12]), the Km was 65 µM, the kcat stood at 2.0 s⁻¹ and the kcat/Km (usually the turnover number divided by the Michaelis constant) is on record as 31,775 M^−1 * s^−1. Moreover, in data set [2] (with NADH), the kcat/Km stood at 34200 M⁻¹ s⁻¹. In data set [3], the Km was 65 µM, the kcat was 2.2 s⁻¹ and the kcat/Km is recorded as 34,188 M^−1 * s^−1.

B2: Escherichia coli KARI (ketol-acid reductoisomerase) Ec_IlvC^his6, wild type IlvC (SEQ ID NO: 13) with his6-tag, SEQ ID NO: 15 (Escherichia coli K-12) (protein)
chain: B1 chain with D78S, V110Q
As to B2, in [4] (setting [12]), the Km is recorded as 1,075 μM, the kcat came out at 1.0 s⁻¹ and the kcat/Km is listed as 1,000 M^−1 * s^−1. Moreover, the kcat/Km in data set [4] (with NADH) was determined as 87300 M⁻¹ s⁻¹. Moreover, in data set [5], the Km amounted to 41 µM, the kcat turned out to be 3.6 s⁻¹ and the kcat/Km came out at 87300 M⁻¹ s⁻¹.

B3: E. coli KARI Ec_IlvC variant Ec_IlvC^B8A71S-his6 (Q110V, S78D, A71S), SEQ ID NO: 29 (Escherichia coli K-12; A71S/Q110V/S78D) (protein)
chain: B1 chain with A71S
With B3, in data set [6] (setting [12]), the Km stood at 53.5 µM, the kcat came out at 2.0 s⁻¹ and the kcat/Km is listed as 38,330 M^−1 * s^−1. The kcat/Km in data set [6] (with NADH) was 37500 M⁻¹ s⁻¹. In addition, in data set [7], the Michaelis constant (Km) was 63.4 µM, the kcat amounted to 2.4 s⁻¹ and the kcat/Km is given as 37,459 M^−1 * s^−1.

B4: E. coli KARI Ec_IlvC variant Ec_IlvC^6E6-his6 (A71S, R76D, S78D, Q110V), SEQ ID NO: 34 (Escherichia coli K-12; A71S/Q110V/R76D/S78D) (protein)
chain: B1 chain with A71S, R76D
notes: T37 values cited for the gene on pGV1975
Consider B4, for which, in data set [8] (setting [13]), the Km was found to be 31.6 µM, the kcat amounted to 2.3 s⁻¹ and the kcat/Km worked out at 74045 M⁻¹ s⁻¹. Moreover, in [8] (setting [14]), the Km is 39 µM, the kcat came out at 2.4 s⁻¹ and the kcat/Km is on record as 63,000 M^−1 * S^−1. For the same molecule, in data set [9], the Km is 653 µM, the kcat was found to be 0.2 s⁻¹ and the kcat/Km turned out to be 386 M⁻¹ s⁻¹.

B5: E. coli KARI Ec_IlvC variant Ec_IlvC^2H10-his6 (A71S, R76D, S78D, Q110A), SEQ ID NO: 31 (Escherichia coli K-12; A71S/Q110A/R76D/S78D) (protein)
chain: B1 chain with A71S, R76D, V110A
notes: T37 values cited for the gene on pGV1976
On to B5, for which, in data set [10], the Km is 44.2 µM, the kcat was found to be 2.6 s⁻¹ and the kcat/Km was 60322 M⁻¹ s⁻¹. Further, in [11], the Km was 568 µM, the kcat was found to be 0.61 s⁻¹ and the specificity constant (kcat/Km) is recorded as 1,078 M^−1 * s^−1.
